Results taken from patent publication CN117736312A (SHANGHAI BOVAX BIOLOGICAL SCIENCE & TECH CO LTD, dated 2024).

Key:
Assay in all cases: sandwich ELISA (rabbit anti-L1 capture)
[1] = target: T1, HPV51L1 (human papillomavirus type 51, UniProt P26536 1-504)
T1 sequence: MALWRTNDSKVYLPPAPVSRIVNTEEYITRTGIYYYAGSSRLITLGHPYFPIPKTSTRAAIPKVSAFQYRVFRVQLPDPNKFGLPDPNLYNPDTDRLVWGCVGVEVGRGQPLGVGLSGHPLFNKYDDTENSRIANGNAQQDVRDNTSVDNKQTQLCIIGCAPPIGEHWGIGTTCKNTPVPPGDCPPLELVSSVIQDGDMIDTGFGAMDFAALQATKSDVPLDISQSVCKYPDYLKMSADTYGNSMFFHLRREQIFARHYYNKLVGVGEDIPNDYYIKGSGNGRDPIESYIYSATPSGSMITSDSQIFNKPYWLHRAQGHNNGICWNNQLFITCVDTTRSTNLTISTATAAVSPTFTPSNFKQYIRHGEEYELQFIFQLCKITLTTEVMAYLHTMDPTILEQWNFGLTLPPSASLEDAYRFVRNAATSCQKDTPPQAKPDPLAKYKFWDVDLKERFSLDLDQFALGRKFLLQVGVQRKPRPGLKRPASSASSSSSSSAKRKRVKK

[2] = target: T2, HPV11L1 (human papillomavirus type 11, UniProt P04012 1-501)
T2 sequence: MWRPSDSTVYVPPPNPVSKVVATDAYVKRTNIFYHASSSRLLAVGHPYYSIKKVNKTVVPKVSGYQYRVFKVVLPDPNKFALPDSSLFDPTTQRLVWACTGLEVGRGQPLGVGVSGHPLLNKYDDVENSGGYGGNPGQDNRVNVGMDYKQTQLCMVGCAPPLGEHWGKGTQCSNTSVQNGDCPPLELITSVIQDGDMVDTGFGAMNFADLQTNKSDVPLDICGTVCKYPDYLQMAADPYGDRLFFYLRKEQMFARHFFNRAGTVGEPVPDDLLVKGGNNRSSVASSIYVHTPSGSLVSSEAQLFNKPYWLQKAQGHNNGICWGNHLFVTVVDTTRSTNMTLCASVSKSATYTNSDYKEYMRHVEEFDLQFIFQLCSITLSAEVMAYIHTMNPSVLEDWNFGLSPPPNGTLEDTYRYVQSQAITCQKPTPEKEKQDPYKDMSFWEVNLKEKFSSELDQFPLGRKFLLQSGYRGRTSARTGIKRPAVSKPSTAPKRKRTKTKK

[3] = target: T3, HPV35L1 (human papillomavirus type 35, UniProt P27232 1-502)
T3 sequence: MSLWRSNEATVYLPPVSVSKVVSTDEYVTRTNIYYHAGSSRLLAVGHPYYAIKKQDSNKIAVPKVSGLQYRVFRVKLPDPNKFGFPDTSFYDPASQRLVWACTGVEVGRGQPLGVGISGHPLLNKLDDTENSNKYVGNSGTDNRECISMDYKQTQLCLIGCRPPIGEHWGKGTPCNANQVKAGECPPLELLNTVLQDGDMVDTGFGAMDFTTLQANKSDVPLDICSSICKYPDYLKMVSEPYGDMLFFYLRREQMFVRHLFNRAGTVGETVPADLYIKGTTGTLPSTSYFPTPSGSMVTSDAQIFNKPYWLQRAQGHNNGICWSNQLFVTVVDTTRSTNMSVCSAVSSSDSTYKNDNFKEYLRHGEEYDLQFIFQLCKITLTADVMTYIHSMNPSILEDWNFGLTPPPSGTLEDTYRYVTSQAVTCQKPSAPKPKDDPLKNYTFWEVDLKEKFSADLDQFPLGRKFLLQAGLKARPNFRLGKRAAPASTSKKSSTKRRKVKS

B1: HPV 59编号为30单克隆抗体 (antibody, V domains shown)
VH: QIQLVQSGPELKKPGETVKISCKASGYTFTDYSMHWVKQAPGKGLKWMGWINTETGEPTYADDFKGRFAFSLETSASTAYLQINNLKIEDTATYFCTRDGYVWYFDVWGAGTTVTVSS
VL: QIVLSQSPAILSASPGEKVTMTCRASSSVNYMHWYQQKPGSSPKPWIYATSNLASGVPARFSGSGSGTSYSLTISRVEAEDAATYYCQQWSSNPIFTFGSGTKLEIK
notes: Mouse hybridoma antibody tested as cell supernatant; also called 59H30
[1]
  binding result: no binding (tested: 原液40μg/ml; 细胞上清1:100)
[2]
  binding result: no binding (tested: 原液40μg/ml; 细胞上清1:100)
[3]
  binding result: no binding (tested: 原液40μg/ml; 细胞上清1:100)
